Assay results taken from patent US5705609A, “Decorin fragments inhibiting cell regulatory factors” (La Jolla Cancer Research Foundation, priority 1995, dated 1998).
“Also recorded” adds a separate entry of the source. Each block holds one molecule with its values, some of them ahead of it.

Columns and labels:
[1] = molecular target: T1, TGFβ-1 (Homo sapiens, UniProt P01137); experiment: affinity chromatography of 125I-TGFβ1 on control gelatin-Sepharose
[2] = molecular target: T2, TGF-β (Homo sapiens, UniProt P01137); experiment: Binding of 125I-TGF-β to L-M(tk-) cells; settings: for inhibition of binding of TGFβ1 to L-M(tk-) cells by synthetic peptides: various concentrations of peptide (FIG. 12)
T2 sequence (P01137 279-390 limits assumed): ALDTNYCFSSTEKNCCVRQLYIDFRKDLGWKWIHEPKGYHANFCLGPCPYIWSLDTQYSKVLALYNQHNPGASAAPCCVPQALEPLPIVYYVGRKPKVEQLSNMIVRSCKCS
Description: (§1) About 2.5×10^4 HepG2 cells or L-M(tk-) cells were incubated with 250 pM[^125 I]TGF-β in the presence of recombinant human decorin (DC-12), PT-71 (MBP), decorin fragments (PT-72, -73, -84, -85, -86 and -87) or anti-TGF-β antibodies for 2 hours at room temperature. Cells were washed with washing buffer (128 mM NaCl, 5 mM KCl, 5 mM […], 1.2 mM CaCl2, 50 mM HEPES, pH 7.5) four times before determination of bound CPM.
The activity of the peptides was evaluated using the L-M(tk-) TGFβ1 binding inhibition assay described in Example VII, except various concentrations of peptide were incubated with the cells and TGFβ1 instead of decorin and recombinant decorin fragments. The negative control was a synthetic peptide corresponding to the first 15 amino acids of decorin, which has the sequence […](SEQ ID NO. 21).

[3] = molecular target: T1, TGFβ-1
[4] = molecular target: T2, TGF-β; experiment: Binding of 125I-TGF-β to immobilized decorin with competitors; settings: 400 pM 125I-TGF-β pre-incubated with competitor; overnight 0° C.
Description: Immulon wells were coated with 0.5 μg/ml recombinant decorin at 50 μl/well. The wells were placed in a 37° C. incubator overnight and thereafter washed 3 times with 200 μl PBS (0.15M NaCl ) per well to remove unbound decorin. TGF-β labeled with ^125 I (400 pM, New England Nuclear, Bolton-Hunter Labeled) was pre-incubated with or without competitors in 200 μl PBS/0.05% Tween-20 for 1 hour and 45 minutes at room temperature. Competitors included recombinant human decorin preparations (DC-13 and DC-18v), decorin fragments, and MBP as a negative control.
Fifty μl/well of the pre-incubated ^125 I-TGF-β mixture or control were added and incubated overnight at 0° C. Following the incubation, 50 μl of the free TGF-β supernatants were transferred to labeled tubes. The plate was washed 3 times with 0.05% Tween-20 in PBS (200 μl/well). The wells were then transferred into tubes for counting in a gamma counter.
Further binding studies were conducted with soluble N-terminal decorin peptide fragments synthesized and tested for their ability to inhibit TGF-β1 binding to immobilized decorin as described above.

[5] = molecular target: T2, TGF-β; experiment: Binding of 125I-TGF-β to HepG2 cells; settings: 250 pM [125I]TGF-β, 2 hours room temperature
Description: as §1

[6] = molecular target: T1, TGFβ-1; experiment: [3H]thymidine incorporation assay: neutralization of TGFβ-1-induced growth inhibition in Mv1Lu cells; assay type: cell-based, mink; parameters: contains a major band at 25 kd; This band represents the native TGFβ-1 dimer; settings: TGFβ-1 0.5 ng/ml
Description: Assay was performed as in FIG. 4A, except that TGFβ-1 was added at 0.5 ng/ml. This concentration of TGFβ induces 50% reduction of [^3 H]-thymidine incorporation in the Mv1Lu cells. The data represent neutralization of TGFβ-induced growth inhibition; i.e., [^3 H]-thymidine incorporation in the presence of neither TGFβ or decorin=100%; incorporation in the presence of TGFβ but not decorin=0%.
Target sequence in this assay (P01137 279-390 limits assumed, species assumed): as the sequence (P01137 279-390 limits assumed) above

[7] = molecular target: T1, TGFβ-1; experiment: Microtiter binding assay: [125I]-TGFβ-1 binding to decorin-coated wells and competition; parameters: contains a major band at 25 kd; This band represents the native TGFβ-1 dimer; purchased Calbiochem, La Jolla, Calif
Description: The binding of TGFβ-1 to decorin was also examined in a microtiter binding assay. To perform the assay, the wells of a 96-well microtiter plate were coated overnight with 2μg/ml of recombinant decorin in 0.1M sodium carbonate buffer, pH 9.5. The wells were washed with PBS containing 0.05% Tween (PBS/Tween) and samples containing 5×10^4 cpm of [^125 I]-TGFβ-1 and various concentrations of competitors in PBS/Tween were added to each well. The plates were then incubated at 37° C. for 4 hours (at 4° C. overnight in experiments with chondroitinase ABC-digested proteoglycans), washed with PBS/Tween and the bound radioactivity was solubilized with 1% SDS in 0.2M NaOH. Total binding without competitors was about 4% under the conditions used. Nonspecific binding, determined by adding 100-fold molar excess of unlabeled TGFβ-1 over the labeled TGFβ-1 to the incubation mixture, was about 13% of total binding. This assay was also used to study the ability of other decorin preparations and related proteins to compete with the interaction.
Decorin isolated from bovine skin and biglycan isolated from bovine articular cartilage (PGI and PGII, obtained from Dr. Lawrence Rosenberg, Monteflore Medical Center, N.Y.; and described in Rosenberg et al., J. Biol. Chem. 250:6304-6313, (1985), incorporated by reference herein), chicken cartilage proteoglycan (provided by Dr. Paul Goetinck, La Jolla Cancer Research Foundation, La Jolla, Calif., and described in Goetinck, P. F., in THE GLYCOCONJUGATES, Vol. III, Horwitz, M. I., Editor, pp. 197-217, Academic Press, NY). For the preparation of core proteins, proteoglycans were digested with chondroitinase ABC (Seikagaku, Tokyo, Japan) by incubating 500 μg of proteoglycan with 0.8 units of chondroitinase ABC in 250 μl of 0.1M Tris/Cl, pH 8.0, 30 mM sodium acetate, 2 mM PMSF, 10 mM N-ethylmalelmide, 10 mM EDTA, and 0.36 mM pepstatin for 1 hour at 37° C. Recombinant decorin and decorin isolated from bovine skin (PGII) inhibited the binding of [^125 I]-TGFβ-1, as expected (FIG. 3A). […] This notion was further supported by competition experiments with the mutated decorin core protein (not shown) and chondroitinase ABC-digested decorin and biglycan (FIG.3B). Each of these proteins was inhibitory, whereas cartilage proteoglycan core protein was not.
Target sequence in this assay (P01137 279-390 limits assumed, species assumed): as the sequence (P01137 279-390 limits assumed) above

[8] = molecular target: T1, TGFβ-1; experiment: [3H]thymidine incorporation assay: neutralization of TGFβ-1-induced growth stimulation in CHO cells; assay type: cell-based; parameters: contains a major band at 25 kd; This band represents the native TGFβ-1 dimer; purchased Calbiochem, La Jolla, Calif
Description: The ability of decorin to modulate the activity of TGFβ-1 was examined in [^3 H]thymidine incorporation assays. In one assay, an unamplified CHO cell line transfected only with pSV2dhfr (control cell line A in reference 1, called CHO cells here) was used. The cells were maintained in nucleoside-free alpha-modified minimal essential medium (e-MEM, GIBCO, Long Island, N.Y.) supplemented with 9% dialyzed fetal calf serum (dFCS) and [^3 H]thymidine incorporation was assayed as described (Cheifetz et al., Cell 48:409-415 (1987)). TGFβ-1 was added to the CHO cell cultures at 5 ng/ml. At this concentration, it induced a 50% increase of [^3 H]thymidine incorporation in these cells. Decorin or BSA was added to the medium at different concentrations. The data represent percent neutralization of the TGFβ-1-induced growth stimulation, i.e., [^3 H]thymidine incorporation, in the absence of either TGFβ-1 or decorin=0%, incorporation in the presence of TGFβ-1 but not decorin=100%. […] Decorin (.circle-solid.) BSA (.largecircle.).
IgG from a normal rabbit serum had no effect in the assay (.largecircle.).
Target sequence in this assay (P01137 279-390 limits assumed, species assumed): as the sequence (P01137 279-390 limits assumed) above

[9] = molecular target: TGFβ-1 (Homo sapiens (Human), UniProt P01137, 125I label in most assays (chloramine T method in Example II; Bolton-Hunter labeled in Example VI); unlabeled in the experiment of Table I and in the growth assays); experiment: soluble peptide competitor of 125I-TGF-β binding to immobilized decorin
Description: The wells were placed in a 37° C. incubator overnight and thereafter washed 3 times with 200 µl PBS (0.15M NaCl) per well to remove unbound decorin.
Following the incubation, 50 µl of the free TGF-β supernatants were transferred to labeled tubes. The plate was washed 3 times with 0.05% Tween-20 in PBS (200 µl/well). The wells were then transferred into tubes for counting in a gamma counter.

Molecule: PFRSQSHLRVVQ [P25 -Q36, 18]
inhibition of binding of TGFβ1 to L-M(tk-) cells by synthetic peptides [2]: inhibited

Molecule: PFRCQCHLRVVQ [nP25 -Q36, 20]
inhibition of binding of TGFβ1 to L-M(tk-) cells by synthetic peptides [2]: demonstrated inhibitory activity, albeit to a lesser extent

B1: DC-13: preparation of recombinant human decorin (protein)
chain: DEASGIGPEVPDDRDFEPSLGPVCPFRCQCHLRVVQCSDLGLDKVPKDLPPDTTLLDLQNNKITEIKDGDFKNLKNLHALILVNNKISKVSPGAFTPLVKLERLYLSKNQLKELPEKMPKTLQELRAHENEITKVRKVTFNGLNQMIVIELGTNPLKSSGIENGAFQGMKKLSYIRIADTNITSIPQGLPPSLTELHLDGNKISRVDAASLKGLNNLAKLGLSFNSISAVDNGSLANTPHLRELHLDNNKLTRVPGGLAEHKYIQVVYLHNNNISVVGSSDFCPPGHNTKKASYSGVSLFSNPVQYWEIQPSTFRCVYVRSAIQLGNYK
modifications: single glycosaminoglycan chain of a chondroitin sulfate/dermatan sulfate type on serine-4
notes: preparation of recombinant human decorin
inhibition of 125I-TGF-β binding to immobilized decorin [4]: inhibited

B3: Recombinant human decorin: recombinant human decorin (DC-12) (protein)
chain: B1 chain
modifications: single glycosaminoglycan chain of a chondroitin sulfate/dermatan sulfate type on serine-4
inhibition of 125I-TGF-β binding to HepG2 cells [5]: inhibited
inhibition of 125I-TGF-β binding to L-M(tk-) cells ([2]; 250 pM [125I]TGF-β, 2 hours room temperature, proteins): inhibited

Molecule: HLRVVQCSDLGL [peptide 16G]
binding result [9]: binds

Continued, in another order:

percent of the radioactivity in the urea-eluted fraction [1]: 2%
Molecule: gelatin

3H-thymidine incorporation in CHO cells stimulated with 5 ng/ml TGFβ-1, half maximal neutralization [3]: 5 µg/mL
Molecule: recombinant human decorin (from UniProt P07585)

inhibition of 125I-TGF-β binding to immobilized decorin [4]: inhibited
B2: DC-18V: preparation of recombinant human decorin (protein)
chain: B1 chain
modifications: single glycosaminoglycan chain of a chondroitin sulfate/dermatan sulfate type on serine-4
notes: as for B1

inhibition of [125I]-TGFβ-1 binding to decorin-coated wells ([7]; intact proteoglycans, 37° C. 4 hours (FIG. 3A)): inhibited
half maximal activity, neutralization of growth stimulatory activity of TGFβ-1 ([8]; TGFβ-1 5 ng/ml): about 5 μg/ml
B4: Decorin: recombinant decorin proteoglycan purified from transfected CHO cell media (protein)
chain: B1 chain
modifications: single glycosaminoglycan chain of a chondroitin sulfate/dermatan sulfate type on serine-4
notes: recombinant decorin proteoglycan purified from transfected CHO cell media
effect on TGFβ-1-induced growth inhibition [6]: revealed an effect by decorin on the activity of TGFβ-1
[3H]-thymidine incorporation with additional decorin ([8]; higher decorin concentrations): suppressed the [^3 H]-thymidine incorporation below the level observed without any added TGFβ-1

binding of [125I]-TGFβ-1 to microtiter wells coated with the protein ([7]; protein coated on wells): bound
B5: chondroitinase ABC-digested biglycan: biglycan core protein prepared by chondroitinase ABC digestion (protein)
chain: DEEASGAETTSGIPDLDSLPPTYSAMCPFGCHCHLRVVQCSDLGLKAVPKEISPDTTLLDLQNNDISELRKDDFKGLQHLYALVLVNNKISKIHEKAFSPLRKLQKLYISKNHLVEIPPNLPSSLVELRIHDNRIRKVPKGVFSGLRNMNCIEMGGNPLENSGFEPGAFDGLKLNYLRISEAKLTGIPKDLPETLNELHLDHNKIQAIELEDLLRYSKLYRLGLGHNQIRMIENGSLSFLPTLRELHLDNNKLSRVPAGLPDLKLLQVVYLHTNNITKVGVNDFCPVGFGVKRAYYNGISLFNNPVPYWEVQPATFRCVTDRLAIQFGNYKK
modifications: glycosaminoglycan removed with chondroitinase ABC
notes: biglycan core protein prepared by chondroitinase ABC digestion
inhibition of [125I]-TGFβ-1 binding to decorin-coated wells by core proteins ([7]; core proteins / chondroitinase ABC-treated, 4° C. overnight (FIG. 3B)): inhibitory; also recorded: somewhat more active than the intact proteoglycans
